Paper PMC9089384

Molecular target: human SHP2 catalytic domain (human) (UniProt Q06124)

IC50 of inhibition of SHP2 CD PTP activity by isolated N-SH2 (Figure S2): 15 µM
Substance: isolated SHP2 N-SH2 domain (domain or fragment)
